Assay results as given in paper PMC5577323, “Oxidant sensor in the cGMP-binding pocket of PKGIα regulates nitroxyl-mediated kinase activity” (Scientific Reports, 2017).

Target: the molecule itself
Experiment: cross-linking; interprotein disulfide formed in transfected HEK-293 cells (vehicle, NCA 100 µmol/L 30 min or AS 500 µmol/L 15 min); homogenates in non-reducing Laemmli buffer with 100 mmol/L maleimide, SDS-PAGE, western blot for PKGIα; 150 kDa band lost with 2-mercaptoethanol

B1: cGMP-dependent protein kinase I-alpha (PKGIα), human, wildtype (enzyme, UniProt Q13976 1-671, looked up)
chain: MSELEEDFAKILMLKEERIKELEKRLSEKEEEIQELKRKLHKCQSVLPVPSTHIGPRTTRAQGISAEPQTYRSFHDLRQAFRKFTKSERSKDLIKEAILDNDFMKNLELSQIQEIVDCMYPVEYGKDSCIIKEGDVGSLVYVMEDGKVEVTKEGVKLCTMGPGKVFGELAILYNCTRTATVKTLVNVKLWAIDRQCFQTIMMRTGLIKHTEYMEFLKSVPTFQSLPEEILSKLADVLEETHYENGEYIIRQGARGDTFFIISKGTVNVTREDSPSEDPVFLRTLGKGDWFGEKALQGEDVRTANVIAAEAVTCLVIDRDSFKHLIGGLDDVSNKAYEDAEAKAKYEAEAAFFANLKLSDFNIIDTLGVGGFGRVELVQLKSEESKTFAMKILKKRHIVDTRQQEHIRSEKQIMQGAHSDFIVRLYRTFKDSKYLYMLMEACLGGELWTILRDRGSFEDSTTRFYTACVVEAFAYLHSKGIIYRDLKPENLILDHRGYAKLVDFGFAKKIGFGKKTWTFCGTPEYVAPEIILNKGHDISADYWSLGILMYELLTGSPPFSGPDPMKTYNIILRGIDMIEFPKKIAKNAANLIKKLCRDNPSERLGNLKNGVKDIQKHKWFEGFNWEGLRKGTLTPPIIPSVASPTDTSNFDSFPEDNDEPPPDDNSGWDIDF
modifications: interprotein disulfide at Cys42 (between the two subunits); intradisulfide Cys117-Cys195 after HNO donors
notes: written here as one chain because the row is of the protein with itself; also called WT PKGIα; PKGIα WT; source: HEK-293, transfected (pcDNA3), in cell homogenate
- stoichiometry N: 2
